Laboratory results: paper PMC8844075, “Structural basis of neuropeptide Y signaling through Y1 receptor” (Nature Communications, 2022)

Legend:
[1] = target: Y1R-eYFP (wild-type Y1R) (human) (UniProt P25929)
[2] = target: Y1R-eYFP (wild-type Y1R) (human) (UniProt P25929); remark: listed apart in the source

Y1R-eYFP (wild-type Y1R) (human), sequence (P25929 whole entry): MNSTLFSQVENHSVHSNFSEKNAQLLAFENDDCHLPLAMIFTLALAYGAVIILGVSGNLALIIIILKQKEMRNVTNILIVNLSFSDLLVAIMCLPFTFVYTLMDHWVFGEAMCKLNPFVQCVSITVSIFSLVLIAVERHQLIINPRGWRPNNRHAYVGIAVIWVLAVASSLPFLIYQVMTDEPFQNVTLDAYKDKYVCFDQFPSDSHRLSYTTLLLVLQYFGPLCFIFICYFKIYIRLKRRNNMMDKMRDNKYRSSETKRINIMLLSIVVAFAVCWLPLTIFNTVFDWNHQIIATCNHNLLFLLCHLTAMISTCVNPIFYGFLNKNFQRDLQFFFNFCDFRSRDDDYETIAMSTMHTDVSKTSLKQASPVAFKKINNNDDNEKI

Row | Binder | signalling assay (Ca2+), decrease in potency compared to full-length NPY [1] [fold] | signalling assay, increase of EC50 compared to NPY [2] [fold]
1 | ARYYSALRHYINLITRQRY [NPY(18–36)] | 300 | 
2 | APLEPVYPGDNATPEQMAQYAADLRRYINMLTRPRY [pancreatic polypeptide (PP)] |  | 64
